Reference: patent publication US20220249628

Biological target: full length recombinant von Willebrand factor, P04275

B1: recombinant ADAMTS13 (A Disintegrin And Metalloproteinase with Thrombospondin type 1 motif, member-13) (protein)
chain: AAGGILHLELLVAVGPDVFQAHQEDTERYVLTNLNIGAELLRDPSLGAQFRVHLVKMVILTEPEGAPNITANLTSSLLSVCGWSQTINPEDDTDPGHADLVLYITRFDLELPDGNRQVRGVTQLGGACSPTWSCLITEDTGFDLGVTIAHEIGHSFGLEHDGAPGSGCGPSGHVMASDGAAPRAGLAWSPCSRRQLLSLLSAGRARCVWDPPRPQPGSAGHPPDAQPGLYYSANEQCRVAFGPKAVACTFAREHLDMCQALSCHTDPLDQSSCSRLLVPLLDGTECGVEKWCSKGRCRSLVELTPIAAVHGRWSSWGPRSPCSRSCGGGVVTRRRQCNNPRPAFGGRACVGADLQAEMCNTQACEKTQLEFMSQQCARTDGQPLRSSPGGASFYHWGAAVPHSQGDALCRHMCRAIGESFIMKRGDSFLDGTRCMPSGPREDGTLSLCVSGSCRTFGCDGRMDSQQVWDRCQVCGGDNSTCSPRKGSFTAGRAREYVTFLTVTPNLTSVYIANHRPLFTHLAVRIGGRYVVAGKMSISPNTTYPSLLEDGRVEYRVALTEDRLPRLEEIRIWGPLQEDADIQVYRRYGEEYGNLTRPDITFTYFQPKPRQAWVWAAVRGPCSVSCGAGLRWVNYSCLDQARKELVETVQCQGSQQPPAWPEACVLEPCPPYWAVGDFGPCSASCGGGLRERPVRCVEAQGSLLKTLPPARCRAGAQQPAVALETCNPQPCPARWEVSEPSSCTSAGGAGLALENETCVPGADGLEAPVTEGPGSVDEKLPAPEPCVGMSCPPGWGHLDATSAGEKAPSPWGSIRTGAQAAHVWTPAAGSCSVSCGRGLMELRFLCMDSALRVPVQEELCGLASKPGSRREVCQAVPCPARWQYKLAACSVSCGRGVVRRILYCARAHGEDDGEEILLDTQCQGLPRPEPQEACSLEPCPPRWKVMSLGPCSASCGLGTARRSVACVQLDQGQDVEVDEAACAALVRPEASVPCLIADCTYRWHVGTWMECSVSCGDGIQRRRDTCLGPQAQAPVPADFCQHLPKPVTVRGCWAGPCVGQGTPSLVPHEEAAAPGRTTATPAGASLEWSQARGLLFSPAPQPRRLLPGPQENSVQSSACGRQHLEPTGTIDMRGPGQADCAVAIGRPLGEVVTLRVLESSLNCSAGDMLLLWGRLTWRKMCRKLLDMTFSSKTNTLVVRQRCGRPGGGVLLRYGSQLAPETFYRECDMQLFGPWGEIVSPSLSPATSNAGGCRLFINVAPHARIAIHALATNMGAGTEGANASYILIRDTHSLRTTAFHGQQVLYWESESSQAEMEFSEGFLKAQASLRGQYWTLQSWVPEMQDPQSWKGKEGT
For B1, the “176 kDa dimeric VWF cleavage fragment (VWF immunoblot, vortex-based assay, no hemoglobin)” value was “Control reactions with 0.25 U/mL, 0.5 U/mL, and 1 U/mL rADAMTS13 in absence of hemoglobin showed a dose-dependent increase of the 176 kDa dimeric VWF cleavage fragment”, the “ADAMTS13-mediated VWF cleavage in the presence of hemoglobin (176 kDa fragment, densitometry)” value was “rADAMTS13 has a dose-dependent potency to overcome the inhibitory effect of hemoglobin on VWF cleavage” and the “cleavage of rVWF after pre-incubation of hemoglobin and rVWF (176 kDa fragment, densitometry)” value was “rADAMTS13 supplemented after a pre-incubation time of hemoglobin and rVWF was capable to cleave VWF”.
